Test results reported in the supplement of paper PMC10126150.
± gives the standard deviation of the averaged measurements.

Tested on: ATP
Assay: switch fluorescence ratio, 500 uM ATP over buffer (Cy3 cluster intensity, sum of 5 cycles each) (fold (ratio)); higher = stronger signal-on switching upon ATP binding; sequences stand for … in TCGTCGGCAGCGTCAGATGTGTATAAGAGACAGTTTTTTTTTTTTTTTTTTTTTTTTT…TC
Details: aptamer strand: ATP DNA aptamer (quencher-CACCTGGGGGAGTATTGCGGAGGAAGG + anchor), 100 nM annealed; ATP concentration: 500 uM
How it was run: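 Clusters carrying Cy3-labelled switching strands on a modified Illumina MiSeq flow-cell were annealed to 100 nM quencher-labelled ATP aptamer and imaged in selection buffer. They were imaged again after 15 min with 500 uM ATP at 22 °C, over five buffer/ATP cycles with NaOH stripping and re-annealing in between. For each cluster, the fluorescence ratio is the summed Cy3 intensity of the target cycles divided by that of the buffer cycles, averaged per switch-domain sequence. Clusters outside 100-1000 RFU were left out.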
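Also: ATP exposure 15 min at 22 °C before imaging.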

| Sequence | switch fluorescence ratio |
| --- | --- |
| GCCTTGCCTT | 1.03 ± 0.013 |
| GCCTTTTCTG | 0.962 ± 0.031 |
| GCCTTTTTTT | 0.991 ± 0.029 |
| GCGAAAAGGG | 1.024 ± 0.0069 |
| GCGAAACAGG | 1.11 ± 0.06 |
| GCGAAAGGGT | 1 ± 0.015 |
| GCGAACGCGC | 1.27 ± 0.011 |
| GCGAATAGTT | 1.005 ± 0.0067 |
| GCGAATGATG | 0.966 ± 0.024 |
| GCGAATGCGG | 1.006 ± 0.003 |
| GCGACAAGAG | 1.03 ± 0.067 |
| GCGACAGGAC | 1.48 ± 0.12 |
| GCGACGGGCG | 0.972 ± 0.044 |
| GCGACTAGGC | 1.03 ± 0.068 |
| GCGAGAAATC | 1.08 ± 0.019 |
| GCGAGAACGG | 1.01 ± 0.034 |
| GCGAGATGAT | 0.977 ± 0.022 |
| GCGAGCAGTA | 1.01 ± 0.028 |
| GCGAGCCACG | 1.007 ± 0.0076 |
| GCGAGCGGGT | 1 ± 0.016 |
| GCGAGGGATG | 1.002 ± 0.0043 |
| GCGAGGGTGT | 1.12 ± 0.039 |
| GCGATACTCG | 3.56 ± 0.16 |
| GCGATCGTTT | 0.992 ± 0.011 |
| GCGATGGTCG | 0.937 ± 0.14 |
| GCGATTATAT | 0.969 ± 0.049 |

| Sequence | switch fluorescence ratio |
| --- | --- |
| GCGATTGGAT | 1.03 ± 0.0022 |
| GCGATTGGGG | 0.9705 ± 0.0044 |
| GCGATTTATG | 0.9723 ± 0.0051 |
| GCGCAATCTG | 1.98 ± 0.52 |
| GCGCATAGGG | 1.04 ± 0.044 |
| GCGCATTAGC | 1.3 ± 0.061 |
| GCGCGAGTAG | 1.03 ± 0.028 |
| GCGCGCTAGT | 1.007 ± 0.0024 |
| GCGCGGCTTC | 1.03 ± 0.034 |
| GCGCGTATAT | 1.07 ± 0.044 |
| GCGCGTCAAG | 1.012 ± 0.009 |
| GCGCGTTTTT | 1 ± 0.016 |
| GCGCTAATTT | 1.28 ± 0.59 |
| GCGCTAGGGC | 1 ± 0.014 |
| GCGCTCGTAC | 2.27 ± 0.15 |
| GCGCTTGAAC | 1.15 ± 0.051 |
| GCGCTTGAGG | 1.006 ± 0.0083 |
| GCGCTTGGAA | 1.02 ± 0.049 |
| GCGCTTTTCT | 0.9784 ± 0.0063 |
| GCGGAAAGAA | 0.962 ± 0.02 |
| GCGGAAAGGA | 1 ± 0.038 |
| GCGGAAAGGG | 0.992 ± 0.021 |
| GCGGAAGGG | 0.996 ± 0.0087 |
| GCGGAATAGG | 1.038 ± 0.0062 |
| GCGGAATGGG | 1.01 ± 0.019 |
| GCGGACAGGA | 1 ± 0.029 |

| Sequence | switch fluorescence ratio |
| --- | --- |
| GCGGAGCATG | 1.1036 ± 0.00099 |
| GCGGATGAGA | 1.056 ± 0.0096 |
| GCGGATTCGG | 0.9551 ± 0.0048 |
| GCGGATTGAA | 0.988 ± 0.044 |
| GCGGCCAGGG | 1.23 ± 0.15 |
| GCGGCGGGGG | 0.99 ± 0.031 |
| GCGGCTTCGT | 1.02 ± 0.07 |
| GCGGGAAAGG | 0.978 ± 0.012 |
| GCGGGACGTT | 0.96828 ± 0.00072 |
| GCGGGATACA | 1.07 ± 0.034 |
| GCGGGATCCG | 1.06 ± 0.083 |
| GCGGGCAGGA | 1.02 ± 0.021 |
| GCGGGCGATG | 0.9902 ± 0.00014 |
| GCGGGCGTTG | 0.996 ± 0.053 |
| GCGGGCTTCA | 1.01 ± 0.025 |
| GCGGGGACAA | 1.069 ± 0.0083 |
| GCGGGGACAT | 0.994 ± 0.013 |
| GCGGGGACGG | 1.07 ± 0.034 |
| GCGGGGCCTT | 0.9811 ± 0.004 |
| GCGGGGCGGG | 1.02 ± 0.017 |
| GCGGGGTACT | 1.11 ± 0.055 |
| GCGGGTATGA | 0.964 ± 0.052 |
| GCGGGTCAAA | 0.9883 ± 0.0093 |
| GCGGGTCAGC | 1.01 ± 0.012 |
| GCGGGTTGCC | 0.9871 ± 0.0013 |
| GCGGGTTTGG | 1.01 ± 0.018 |

| Sequence | switch fluorescence ratio |
| --- | --- |
| GCGGTAACCA | 0.992 ± 0.033 |
| GCGGTAGCAT | 1.02 ± 0.012 |
| GCGGTAGGTT | 1.01 ± 0.013 |
| GCGGTCAAAC | 1.06 ± 0.036 |
| GCGGTGCTGG | 0.991 ± 0.024 |
| GCGGTGGCGG | 0.987 ± 0.039 |
| GCGGTGGTTT | 0.998 ± 0.017 |
| GCGGTGTTGG | 0.9887 ± 0.006 |
| GCGGTTCGAA | 0.997 ± 0.084 |
| GCGGTTGCCA | 0.982 ± 0.033 |
| GCGGTTGTTC | 0.995 ± 0.034 |
| GCGTAAAGAT | 0.992 ± 0.034 |
| GCGTAAAGGG | 0.99 ± 0.043 |
| GCGTAAGCAG | 0.981 ± 0.012 |
| GCGTACAAGA | 1.04 ± 0.061 |
| GCGTATGTAC | 1.212 ± 0.0081 |
| GCGTCCGACT | 0.986 ± 0.06 |
| GCGTCTATTA | 0.995 ± 0.012 |
| GCGTCTTGGG | 0.96 ± 0.025 |
| GCGTGACGGC | 0.981 ± 0.033 |
| GCGTGGGGGG | 1 ± 0.016 |
| GCGTGTAGAT | 1.04 ± 0.036 |
| GCGTTAACGC | 0.9731 ± 0.0096 |
| GCGTTAATGG | 1 ± 0.02 |
| GCGTTAGCGC | 0.968 ± 0.012 |
| GCGTTAGCTT | 0.982 ± 0.069 |

| Sequence | switch fluorescence ratio |
| --- | --- |
| GCGTTAGGGT | 0.976 ± 0.027 |
| GCGTTAGTAC | 1.09 ± 0.031 |
| GCGTTAGTAG | 0.9971 ± 0.0082 |
| GCGTTAGTTG | 1.01 ± 0.057 |
| GCGTTCACGG | 0.988 ± 0.026 |
| GCGTTCATGG | 1.04 ± 0.0093 |
| GCGTTCGTGG | 1.02 ± 0.027 |
| GCGTTGCATT | 1 ± 0.017 |
| GCGTTGGAAA | 0.997 ± 0.015 |
| GCGTTGGGGG | 0.995 ± 0.037 |
| GCGTTTAACT | 0.9888 ± 0.008 |
| GCGTTTAAGT | 1.02 ± 0.032 |
| GCGTTTATGT | 0.953 ± 0.025 |
| GCGTTTGCGC | 1.03 ± 0.016 |
| GCGTTTGGAC | 1.056 ± 0.01 |
| GCGTTTGGCT | 0.996 ± 0.021 |
| GCGTTTGGGC | 0.99 ± 0.057 |
| GCGTTTGTGG | 1 ± 0.011 |
| GCGTTTTAAC | 1.019 ± 0.0093 |
| GCGTTTTGTC | 0.96229 ± 0.00085 |
| GCTAAAAAGA | 1 ± 0.076 |
| GCTAAAAGTT | 0.995 ± 0.021 |
| GCTAAACGAT | 1.03 ± 0.055 |
| GCTAAAGGGG | 1.19 ± 0.31 |
| GCTAAAGGTA | 0.986 ± 0.011 |
| GCTAAAGTCT | 1.043 ± 0.0085 |

| Sequence | switch fluorescence ratio |
| --- | --- |
| GCTAACGGTT | 0.981 ± 0.011 |
| GCTAATTGTG | 0.975 ± 0.0036 |
| GCTACACAGG | 1.45 ± 0.016 |
| GCTACAGGTT | 1.007 ± 0.0092 |
| GCTACCAAGC | 1.07 ± 0.025 |
| GCTACCCACT | 1.46 ± 0.033 |
| GCTACTGGAT | 1.007 ± 0.0058 |
| GCTACTGTTA | 1.077 ± 0.0025 |
| GCTACTTAGT | 1.02 ± 0.017 |
| GCTAGAGAGG | 1.04 ± 0.063 |
| GCTAGGCATG | 1.04 ± 0.027 |
| GCTAGGCCTT | 0.9957 ± 0.0082 |
| GCTAGGGTA | 0.9973 ± 0.0043 |
| GCTAGGTGAA | 1.21 ± 0.017 |
| GCTAGGTTTG | 0.998 ± 0.054 |
| GCTAGTGAAC | 1.029 ± 0.0091 |
| GCTATAAAAC | 1.03 ± 0.077 |
| GCTATAAGGG | 1 ± 0.036 |
| GCTATAGAAT | 1.01 ± 0.028 |
| GCTATAGGGG | 1.02 ± 0.02 |
| GCTATAGGTG | 1.27 ± 0.057 |
| GCTATAGTGG | 1.04 ± 0.035 |
| GCTATAGTGT | 0.992 ± 0.021 |
